The results in this text go back to US20250353926A1.

The target of the experiment is PSMA expressed on target cells (PC3pip cells, high density; 22Rv1 cells, low density) (UniProt Q04609). Description: cell-based or functional assay.
Chain of PSMA expressed on target cells (PC3pip cells, high density; 22Rv1 cells, low density) (Q04609 whole entry): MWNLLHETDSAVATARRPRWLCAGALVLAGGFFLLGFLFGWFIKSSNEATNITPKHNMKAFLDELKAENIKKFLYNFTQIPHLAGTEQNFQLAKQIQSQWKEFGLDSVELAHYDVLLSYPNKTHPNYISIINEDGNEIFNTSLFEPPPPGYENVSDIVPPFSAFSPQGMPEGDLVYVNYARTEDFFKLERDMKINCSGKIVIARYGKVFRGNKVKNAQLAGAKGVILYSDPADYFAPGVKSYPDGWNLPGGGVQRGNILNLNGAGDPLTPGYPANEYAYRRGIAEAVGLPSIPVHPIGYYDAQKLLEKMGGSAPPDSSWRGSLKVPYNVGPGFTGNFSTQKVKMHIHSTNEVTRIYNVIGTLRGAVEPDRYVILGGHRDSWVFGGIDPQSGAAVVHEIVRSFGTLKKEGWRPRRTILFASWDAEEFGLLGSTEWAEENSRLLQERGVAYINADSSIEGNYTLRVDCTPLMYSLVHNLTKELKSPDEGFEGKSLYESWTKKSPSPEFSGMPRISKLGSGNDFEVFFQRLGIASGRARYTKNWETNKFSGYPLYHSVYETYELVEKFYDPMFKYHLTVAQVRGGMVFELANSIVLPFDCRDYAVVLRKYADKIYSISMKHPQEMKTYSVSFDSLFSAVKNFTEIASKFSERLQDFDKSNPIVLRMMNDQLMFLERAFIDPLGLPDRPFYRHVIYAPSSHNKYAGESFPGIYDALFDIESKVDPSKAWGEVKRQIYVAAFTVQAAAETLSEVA

Substance monoclonal anti-PSMA antibody, J591 came in with an EC50; ADCC luciferase reporter assay (Jurkat CD16a V158 reporter cells), PC3pip 24 h continuous of 160 pM; an EC50; ADCC reporter assay, 22Rv1 4 h washout, 24 h endpoint of over 500000 pM; an EC50; ADCC reporter assay, PC3pip 4 h washout, 24 h endpoint of 44 pM.
